Measured values published in patent publication US6967092 (dated 2005).

Target: T1, human G-CSF receptor transfected in BaF3 cells (human, UniProt Q99062 25-836)
T1 construct: whole, on cells; also called hG-CSF receptor; BaF3/hG-CSF
Experiment: competition with an agonist-specific radioligand, BaF3 cells transfected with the G-CSF receptor

IC50: 0.69 nM
B1: G-CSF (ligand)
chain: not shown
